For orientation: stoichiometry N means the number of molecules, sites or subunits per partner or assembly.

Assay [1] has as its target carboxymethylated humanized ferritin (S-CMHumFt) (Archaeoglobus fulgidus | human). Nature of the assay: SEC; HP-SEC with UV (220, 410 nm) and fluorimetric detection; ferritin dissociated without MgCl2, mixed with a 20 fold molar excess of Cyt C, re-assembled with 50 mM MgCl2; mobile phase 20 mM HEPES pH 7.4, 50 mM MgCl2; Cyt C signal at the retention time of the ferritin 24-mer (encapsulation in the cavity). A general note: In gel filtration, larger molecules generally elute earlier.

The target of assay [2] is humanized Archaeoglobus ferritin (HumFt) (Archaeoglobus fulgidus | human). The assay is described as above.

As for “cytochrome C from equine heart (from UniProt P00004 1-105) (natural protein)”, the stoichiometry N in assay [1] is 1.4 Cyt C:HumFt; in assay [2], 0.43 Cyt C:HumFt.

For the origin of these results see PMC6692331.
